Article doi:10.1101/2025.05.28.656462 (bioRxiv, 2025)

Biological target: the molecule itself
Assay: SEC

B1: full-length Pseudomonas aeruginosa bacteriophytochrome PaBphP, wild type (FL-PaBphP-D) (natural protein)
chain: MTSITPVTLANCEDEPIHVPGAIQPHGALVTLRADGMVLAASENIQALLGFVASPGSYLTQEQVGPEVLRMLEEGLTGNGPWSNSVETRIGEHLFDVIGHSYKEVFYLEFEIRTADTLSITSFTLNAQRIIAQVQLHNDTASLLSNVTDELRRMTGYDRVMAYRFRHDDSGEVVAESRREDLESYLGQRYPASDIPAQARRLYIQNPIRLIADVAYTPMRVFPALNPETNESFDLSYSVLRSVSPIHCEYLTNMGVRASMSISIVVGGKLWGLFSCHHMSPKLIPYPVRMSFQIFSQVCSAIVERLEQGRIAELLRVSTERRLALARRARDADDLFGALAHPDDGIAALIPCDGALVMLGGRTLSIRGDFERQAGNVLQRLQRDPERDIYHTDNWPQPSEDSPDGGDCCGVLAIRFHRQESGWIFWFRHEEVHRIRWGGKPEKLLTIGPSGPRLTPRGSFEAWEEVVRGHSTPWSETDLAIAEKLRLDLMELCLNHAAEVDRMRQRLIAVLGHDLRNPLQSISMAAALLSSSDTRTTELRQHISASSSRMERLVSQILDMSRLQSGIGLTVNPVDTDVSQLVRQIVCETDVAYPGLVIEIAIDPQVRAVVDPDRYAQVAANLLSNARHHGLPGRPVLVTLTRQGDEVCLSVLNETSGLSEAQLANLFEPFKRESADNQRNRNGLGIGLYISQAIAQAHQGRIDVDCRDDVITFCLRLPVRQAETGSSS
In the case of B1, the “stoichiometry N” value is reported as 2.
